Assay results: patent US20210070876A1 (LES LABORATOIRES SERVIER, published 2021)
Blank lines part the entries; values can stand above or below the binder they belong to.

What was measured:
[1] = biological target: T1, human CD73 expressed on cells (human, UniProt P21589 27-549); experiment: flow cytometry on CHO-S cells transiently expressing human CD73, AF647 anti-human IgG (H+L) secondary, GeoMean
T1 construct: also called 5'-NT; human CD73 on CHO-S cells
T1 sequence: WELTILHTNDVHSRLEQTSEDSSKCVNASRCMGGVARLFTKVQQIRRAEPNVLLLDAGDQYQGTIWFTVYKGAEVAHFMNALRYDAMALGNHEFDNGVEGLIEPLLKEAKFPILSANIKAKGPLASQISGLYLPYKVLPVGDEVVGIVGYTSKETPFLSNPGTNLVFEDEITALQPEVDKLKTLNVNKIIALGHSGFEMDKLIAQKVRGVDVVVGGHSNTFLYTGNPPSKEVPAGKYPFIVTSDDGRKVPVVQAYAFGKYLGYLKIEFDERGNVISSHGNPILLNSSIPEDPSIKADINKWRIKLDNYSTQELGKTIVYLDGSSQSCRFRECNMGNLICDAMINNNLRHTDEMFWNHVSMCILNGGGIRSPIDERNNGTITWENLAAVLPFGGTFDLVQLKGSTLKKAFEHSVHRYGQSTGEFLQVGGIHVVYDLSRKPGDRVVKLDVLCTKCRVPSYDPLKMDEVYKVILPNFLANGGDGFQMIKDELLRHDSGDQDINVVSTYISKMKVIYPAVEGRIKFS
Description: The anti-CD73 antibodies were incubated with the hamster CHO-S cell line transiently expressing human or cynomolgus CD73 for 30 minutes at 4° C. The cells were washed twice and subsequently incubated for an additional 20 minutes with AF647-conjugated secondary anti-human IgG (H+L) antibody. After the washing step, antibody binding was detected using the high-throughput flow cytometer iQue Screener PLUS (Sartorius) measuring the GeoMean of AF647 signal in each well. Every concentration was assayed in triplicate and a 12-point titration curve was generated for each antibody.

[2] = biological target: T2, human CD73 ECD fused C-terminally to human IgG1 Fc (human, UniProt P21589 27-549, limits assumed); experiment: SPR, Fc-tagged CD73 ECD captured, Fab injected
T2 construct: Expressed in ExpiCHO; also called Hs CD73 ECD; Fc-tagged antigen
T2 sequence: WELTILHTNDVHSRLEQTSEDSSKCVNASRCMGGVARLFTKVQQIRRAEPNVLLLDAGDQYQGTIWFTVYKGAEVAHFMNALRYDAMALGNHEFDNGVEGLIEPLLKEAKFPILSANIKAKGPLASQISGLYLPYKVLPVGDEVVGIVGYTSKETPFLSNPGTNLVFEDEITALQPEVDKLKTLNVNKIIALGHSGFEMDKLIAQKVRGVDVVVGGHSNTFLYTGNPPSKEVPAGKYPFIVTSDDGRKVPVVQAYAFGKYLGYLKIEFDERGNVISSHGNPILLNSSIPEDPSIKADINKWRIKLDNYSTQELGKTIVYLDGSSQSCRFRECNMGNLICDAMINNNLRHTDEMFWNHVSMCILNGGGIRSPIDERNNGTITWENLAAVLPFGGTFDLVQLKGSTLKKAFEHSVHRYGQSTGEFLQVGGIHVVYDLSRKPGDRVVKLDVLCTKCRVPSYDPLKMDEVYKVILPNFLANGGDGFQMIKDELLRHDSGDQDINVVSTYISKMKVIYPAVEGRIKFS
Description: (§1) Kinetic binding analysis of anti-CD73 mAbs and Fab fragments was performed by Surface Plasmon Resonance (SPR), using a Continuous Flow Microspotter (CFM, Wasatch Microfluidics, Salt Lake City, US) combined with an IBIS MX96 SPR instrument (IBIS Technologies, The Netherlands). CD73 cDNAs coding for the extracellular domains of human and cynomolgus CD73 were synthesized and each cloned into a vector containing a CMV promoter and either a C-terminal 6× histidine sequence (SEQ ID NO: 45) for His-tagged CD73 ECD, or a human IgG1 Fc sequence (AA P101-K330), resulting in fusion of IgG1 Fc C-terminally to the cloned CD73 ECD. The His-tagged and Fc-fusion constructs were transiently expressed using an ExpiCHO™ expression system and purified either by standard Ni-NTA chromatography or standard MabSelect™ SuRe™ procedures, respectively. Anti-CD73 Fab fragments were generated by digesting full-length IgG1 antibodies with GingisKHAN enzyme, using a kit provided by Genovis (Sweden). Affinities of Fab fragments were measured by capturing Fc-tagged antigens on a G-a-hu-IgG Fc SensEye® for 15 minutes using the CFM. After spotting, the SensEye® was positioned in the IBIS MX96 biosensor and immobilized antigens were fixed by SensEye FixIt kit. Kinetic analysis was performed by injecting monomeric Fab fragments at increasing concentrations from 0.8 nM to 300 nM. After each cycle of Fab fragment injection, the surface was regenerated by 10 mM glycine pH 3, 10% glycerol. Fab association was performed for 15 minutes and antigen dissociation was performed for 15 minutes. Affinities of full-length monoclonal antibodies (mAbs) were measured by capturing mAbs on a G-a-hu-IgG Fc SensEye® (Ssens BV, The Netherlands) for 15 minutes using a Continuous Flow Microspotter (CFM, Wasatch Microfluidics, Salt Lake City, US). After spotting, the SensEye was docked in the IBIS MX96 and spotted mAbs were fixed by SensEye FixIt kit (Ssens BV, The Netherlands). Kinetic analysis was performed by applying a kinetic titration series injecting increasing concentrations of His-tagged antigens from 0.16 nM to 10 nM as 2-fold dilutions. The surface was regenerated before the next cycle of cynomolgus antigen injections by 100 mM H₃PO₄, pH 3. MAb association was performed for 15 minutes and antigen dissociation was performed for 45 minutes.

[3] = biological target: T3, cynomolgus CD73 ECD fused C-terminally to human IgG1 Fc (cynomolgus monkey (Macaca …, UniProt A0A2K5V5U7 27-549)); experiment: SPR, Fc-tagged CD73 ECD captured, Fab injected
T3 construct: also called Cy CD73 ECD; Fc-tagged antigen; not shown: Human IgG1 Fc (printed as AA P101-K330) fused to the C-terminus of the ECD, and any linker
T3 sequence: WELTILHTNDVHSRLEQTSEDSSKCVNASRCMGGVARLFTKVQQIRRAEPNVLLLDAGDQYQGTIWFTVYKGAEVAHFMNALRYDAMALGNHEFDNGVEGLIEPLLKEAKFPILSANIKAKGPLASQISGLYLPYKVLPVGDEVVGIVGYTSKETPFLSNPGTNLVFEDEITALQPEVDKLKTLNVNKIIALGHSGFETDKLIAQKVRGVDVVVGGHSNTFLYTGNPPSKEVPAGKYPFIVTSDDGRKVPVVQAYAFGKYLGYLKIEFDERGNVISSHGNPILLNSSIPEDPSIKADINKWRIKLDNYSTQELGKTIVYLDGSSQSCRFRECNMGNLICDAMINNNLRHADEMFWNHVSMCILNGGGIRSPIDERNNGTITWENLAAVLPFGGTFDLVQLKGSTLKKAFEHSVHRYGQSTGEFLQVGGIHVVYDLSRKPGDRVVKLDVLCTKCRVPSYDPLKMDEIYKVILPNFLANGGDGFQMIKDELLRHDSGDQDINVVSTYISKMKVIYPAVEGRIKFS
Description: as §1

[4] = biological target: T4, His-tagged human CD73 ECD (human, UniProt P21589 27-549); experiment: SEC-MALS, mAb:CD73 1:1
T4 construct: runs as a homodimer of about 124-125 kDa in SEC-MALS; also called CD73-His; CD73-His ECD antigen
T4 sequence: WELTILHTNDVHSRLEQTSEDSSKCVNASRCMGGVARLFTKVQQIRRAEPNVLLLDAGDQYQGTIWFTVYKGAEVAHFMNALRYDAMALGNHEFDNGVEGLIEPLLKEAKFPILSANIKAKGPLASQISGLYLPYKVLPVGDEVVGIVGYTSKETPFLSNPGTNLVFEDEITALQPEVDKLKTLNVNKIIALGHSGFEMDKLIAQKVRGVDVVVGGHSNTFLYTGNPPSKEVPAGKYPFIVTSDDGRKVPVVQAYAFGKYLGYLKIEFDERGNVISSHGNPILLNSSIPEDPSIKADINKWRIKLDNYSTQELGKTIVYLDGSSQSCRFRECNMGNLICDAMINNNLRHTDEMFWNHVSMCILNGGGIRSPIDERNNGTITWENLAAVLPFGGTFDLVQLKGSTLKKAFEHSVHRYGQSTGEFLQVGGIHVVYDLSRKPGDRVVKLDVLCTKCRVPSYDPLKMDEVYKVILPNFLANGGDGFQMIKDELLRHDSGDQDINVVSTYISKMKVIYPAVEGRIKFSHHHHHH
Description: (§2) Anti-CD73 antibodies and His-tagged CD73 were analyzed in different ratios as well as individually to analyze the size of complexes formed between CD73 homodimer and anti-CD73 antibodies. Samples were prepared by mixing […] of CD73-His with 900, 450, 90 or 0 μmol of antibody diluted into PBS, pH 7.4. Samples were incubated for 30 min at room temperature followed by separation using a UHPLC UltiMate 3000 (Thermo Scientific) and SEC X-Bridge column (Waters) at a flow rate of 1.2 mL/min. Sample running buffer was 0.01 M Citrate, 250 mM L-Arginine.HCl, pH 6.0. Following HPLC separation, all samples were analyzed using a MiniDAWN TREOS MALS detector (Wyatt) and Optilab T-rEX refractive index detector (Wyatt). Data plots were generated using Graph Pad Prism.

[5] = biological target: T4, His-tagged human CD73 ECD; experiment: SEC-MALS, mAb:CD73 0.1:1
Description: as §2

[6] = biological target: T4, His-tagged human CD73 ECD; experiment: SEC-MALS, mAb:CD73 0.5:1
Description: as §2

[7] = biological target: T5, His-tagged cynomolgus CD73 ECD (cynomolgus monkey (Macaca fascicularis)); experiment: SPR, mAb captured, His-tagged CD73 ECD injected
T5 chain: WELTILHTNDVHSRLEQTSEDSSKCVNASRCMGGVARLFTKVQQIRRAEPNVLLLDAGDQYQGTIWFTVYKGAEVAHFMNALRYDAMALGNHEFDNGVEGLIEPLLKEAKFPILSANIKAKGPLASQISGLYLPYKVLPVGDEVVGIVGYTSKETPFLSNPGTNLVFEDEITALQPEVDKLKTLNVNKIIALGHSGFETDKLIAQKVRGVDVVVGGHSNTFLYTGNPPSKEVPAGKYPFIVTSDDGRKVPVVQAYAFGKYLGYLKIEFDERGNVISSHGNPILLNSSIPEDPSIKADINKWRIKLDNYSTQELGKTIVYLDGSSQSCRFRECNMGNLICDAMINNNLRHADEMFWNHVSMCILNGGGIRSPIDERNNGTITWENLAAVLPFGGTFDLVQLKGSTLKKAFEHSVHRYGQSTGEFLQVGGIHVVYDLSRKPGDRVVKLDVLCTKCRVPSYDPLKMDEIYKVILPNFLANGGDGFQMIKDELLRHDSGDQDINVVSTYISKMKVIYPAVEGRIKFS
Description: as §1

[8] = biological target: T4, His-tagged human CD73 ECD; experiment: SPR, mAb captured, His-tagged CD73 ECD injected
Description: as §1

- binding result [1]: binds
B1: antibody 21028 (antibody, human IgG1, kappa, L234A L235A, V domains shown)
VH: EVQLVESGGGLVQPGRSLRLSCAASGFSFDDYAMHWVRQAPGKGLEWVSGISWHSDNIGYADSVKGRFTISRDNAKNSLYLQMNSLRAEDTAFYYCAKDGPRYRGSYYYFDYWGQGTLVTVSS
VL: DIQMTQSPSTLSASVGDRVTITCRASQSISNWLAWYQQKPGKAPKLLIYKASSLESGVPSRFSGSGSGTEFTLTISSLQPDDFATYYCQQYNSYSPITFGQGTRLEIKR
notes: Fully human IgG1-LALA (L234A/L235A), kappa; germline-corrected (Symplex-corrected) variable domains

- Kd [2]: 54.6 nM
- Kd [3]: 55.3 nM
B2: 21127 Fab fragment (Fab, V domains shown, not shown: small tags and cut ends)
VH: EVQLVESGGGLVQPGRSLRLSCAASGFTFDDFAMHWVRQAPGKGLEWVSGISWNSGNIGYADSVKGRFTISRDNAKNSLYLQMNSLRAEDTALYYCAKDKSGSPYYYYGMDVWGQGTMVTVSS
VL: DIQMTQSPSSVSASVGDRVTITCRATQGISRRLAWYQQKPGKAPKLLIYAASSLQSGVPSRFSGSGSGTDFTLTISSLQPEDFATYYCQQANSFPLTFGGGTKVEIKR
notes: Made by digesting the full-length IgG1 with GingisKHAN enzyme (Genovis)

- molecular mass of complex, Peak 2 (MW, kDa) [4]: 280 kDa
- molecular mass of complex, Peak 2 (MW, kDa) [5]: 279 kDa
- molecular mass of complex, Peak 2 (MW, kDa) [6]: 278 kDa
- Kd [7]: 0.66 nM
- koff [7]: 6.2e-05 s⁻¹
- kon [7]: 100000 M⁻¹ s⁻¹
- Kd [8]: 0.91 nM
- koff [8]: 5.5e-05 s⁻¹
- kon [8]: 65000 M⁻¹ s⁻¹
B3: antibody 21163 (antibody, human IgG1, kappa, L234A L235A, V domains shown)
VH: EVQLVESGGGLVQPGGSLRLSCAASGFSFSTYWMNWVRQAPGKGLEWVANIKQDGSEKYYVDSVKGRFTISRDNAKNSLYLQMNSLRAEDTAVYYCARDISSSWFYYYGMDVWGQGTTVTVSS
VL: DIQLTQSPSFLSASVGDRVTITCRASQGISSYLAWYQQKPGKAPKLLIYAASTLQSGVPSRFSGSGSGTEFTLTISSLQPEDFATYYCQQLNSYPPTFGGGTKVEIKR
notes: Fully human IgG1-LALA (L234A/L235A), kappa
